Experimental findings from IntAct's records for PubMed 11579209 are described below.

B1: Tyrosine-protein phosphatase non-receptor type 1 (Homo sapiens), P18031 (parent)
chain: MEMEKEFEQIDKSGSWAAIYQDIRHEASDFPCRVAKLPKNKNRNRYRDVSPFDHSRIKLHQEDNDYINASLIKMEEAQRSYILTQGPLPNTCGHFWEMVWEQKSRGVVMLNRVMEKGSLKCAQYWPQKEEKEMIFEDTNLKLTLISEDIKSYYTVRQLELENLTTQETREILHFHYTTWPDFGVPESPASFLNFLFKVRESGSLSPEHGPVVVHCSAGIGRSGTFCLADTCLLLMDKRKDPSSVDIKKVLLEMRKFRMGLIQTADQLRFSYLAVIEGAKFIMGDSSVQDQWKELSHEDLEPPPEHIPPPPRPPKRILEPHNGKCREFFPNHQWVKEETQEDKDCPIKEEKGSPLNAAPYGIESMSQDTEVRSRVVGGSLRGAQAASPAKGEPSLPEKDEDHALSYWKPFLVNMCVATVLTAGAYLCYRFLFNSNT

Variants of B1 are the subject of one assay. The note with it: with insr_human INSR.
In the case of S50D, the “effect of a mutation on the interaction” value was “disrupting interaction”.

Variants of B1 are the subject of a further assay. The note with it: with insr_human INSR. The source holds these as a separate data set.
For S50A, the “effect of a mutation on the interaction” value was “decreasing interaction”.
